Source: patent publication US20240255507A1 (SYSMEX, published 2024)

B1: CV30 (antibody, V domains shown)
VH: EVQLVESGGGLIQPGGSLRLSCAASGVIVSSNYMSWVRQAPGKGLEWVSVIYSGGSTYYADSVKGRFTISRDNSKNTLYLQMNSLRAEDTAVYYCARDLDVSGGMDVWGQGTTVTVSS
VL: not shown
B2: REGN10933 (antibody, V domains shown)
VH: QVQLVESGGGLVKPGGSLRLSCAASGFTFSDYYMSWIRQAPGKGLEWVSYITYSGSTIYYADSVKGRFTISRDNAKSSLYLQMNSLRAEDTAVYYCARDRGTTMVPFDYWGQGTLVTVSS
VL: DIQMTQSPSSLSASVGDRVTITCQASQDITNYLNWYQQKPGKAPKLLIYAASNLETGVPSRFSGSGSGTDFTFTISGLQPEDIATYYCQQYDNLPLTFGGGTKVEIKR
B3: BD23 (antibody, V domains shown)
VH: QVQLVQSGSELKKPGASVKVSCKASGYTFTSYAMNWVRQAPGQGLEWMGWINTNTGNPTYAQGFTGRFVFSLDTSVSTAYLQISSLKAEDTAVYYCARPQGGSSWYRDYYYGMDVWGQGTTVTVSS
VL: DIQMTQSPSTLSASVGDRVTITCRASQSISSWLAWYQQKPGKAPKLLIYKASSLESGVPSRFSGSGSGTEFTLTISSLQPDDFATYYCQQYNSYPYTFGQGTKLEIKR
B4: REGN10987 (antibody, V domains shown)
VH: QVQLVESGGGVVQPGRSLRLSCAASGFTFSNYAMYWVRQAPGKGLEWVAVISYDGSNKYYADSVKGRFTISRDNSKNTLYLQMNSLRTEDTAVYYCASGSDYGDYLLVYWGQGTLVTVSS
VL: QSALTQPASVSGSPGQSITISCTGTSSDVGGYNYVSWYQQHPGKAPKLMIYDVSKRPSGVSNRFSGSKSGNTASLTISGLQSEDEADYYCNSLTSISTWVFGGGTKLTVLR
B5: CR3022 (antibody, V domains shown)
VH: QMQLVQSGTEVKKPGESLKISCKGSGYGFITYWIGWVRQMPGKGLEWMGIIYPGDSETRYSPSFQGQVTISADKSINTAYLQWSSLKASDTAIYYCAGGSGISTPMDVWGQGTTVTVSS
VL: DIQMTQSPSSLSASVGDRVTITCRASQSIYSALNWYQQKPGKAPKLLIYAASALQSGVPSRFSGSGSGTDFTLTISSLQPEDFATYYCQQTDIHPYTFGQGTKVEIKR
B6: HKU9 wild-type RBD (other)
chain: SYCTPPYSVLQDPPQPVVWRRYMLYDCVFDFTVVVDSLPTHQLQCYGVSPRRLASMCYGSVTLDVMRINETHLNNLFNRVPDTFSLYNYALPDNFYGCLHAFYLNSTAPYAVANRFPIKPGGRQSNSAFIDTVINAAHYSPFSYVYGLAVITLKPAAGSKLVCPVAN

Key:
[1] = target: B6; test: ELISA, antigen coated, binder 1 µg/mL, chemiluminescence
[2] = target: T1, Hp wild-type RBD (coronavirus Hp strain (Hibecovirus …)); test: as above
[3] = target: SARS-CoV-2 wild-type RBD (SARS-CoV-2, UniProt P0DTC2 319-541); test: as above
[4] = target: T2, GCCDC1 wild-type RBD (coronavirus GCCDC1 strain (Nobecovirus …)); test: as above
[5] = target: T3, Zaria wild-type RBD (coronavirus Zaria strain (Hibecovirus …)); test: as above
[6] = target: B6; test: ELISA, antigen coated
[7] = target: T1, Hp wild-type RBD; test: ELISA, antigen coated
[8] = target: T2, GCCDC1 wild-type RBD; test: ELISA, antigen coated
[9] = target: T3, Zaria wild-type RBD; test: ELISA, antigen coated
[10] = target: T4, ACE2-hFc (AC2-H 5257, Acrobiosystems) (human, UniProt Q9BYF1 18-740); test: ELISA, antigen coated
T4 construct: also called ACE2-Fc
T4 sequence (Q9BYF1 18-740 limits assumed): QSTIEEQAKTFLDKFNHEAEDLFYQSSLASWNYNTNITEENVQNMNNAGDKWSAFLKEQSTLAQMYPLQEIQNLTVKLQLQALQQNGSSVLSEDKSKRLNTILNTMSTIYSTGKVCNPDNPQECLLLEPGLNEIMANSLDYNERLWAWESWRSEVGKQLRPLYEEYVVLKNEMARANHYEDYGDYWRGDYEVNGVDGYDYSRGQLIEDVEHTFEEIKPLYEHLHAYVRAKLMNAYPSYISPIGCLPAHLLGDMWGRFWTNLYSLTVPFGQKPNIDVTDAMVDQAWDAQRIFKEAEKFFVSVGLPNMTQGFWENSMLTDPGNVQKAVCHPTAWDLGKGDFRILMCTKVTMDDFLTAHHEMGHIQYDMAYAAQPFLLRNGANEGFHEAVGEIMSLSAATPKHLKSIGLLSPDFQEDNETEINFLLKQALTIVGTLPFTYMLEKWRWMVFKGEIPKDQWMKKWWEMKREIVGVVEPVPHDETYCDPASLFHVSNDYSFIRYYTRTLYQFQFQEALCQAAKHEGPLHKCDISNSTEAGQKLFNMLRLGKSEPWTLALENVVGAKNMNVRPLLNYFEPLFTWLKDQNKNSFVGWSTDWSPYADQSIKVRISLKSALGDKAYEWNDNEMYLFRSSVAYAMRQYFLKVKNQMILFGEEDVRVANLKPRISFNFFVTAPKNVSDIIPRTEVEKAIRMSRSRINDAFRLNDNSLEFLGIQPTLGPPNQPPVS

Binder	signal intensity [1]	signal intensity [2]	signal intensity [3]	signal intensity [4]	signal intensity [5]	binding result [6]	binding result [7]	binding result [8]	binding result [9]	binding result [10]
B1	583	150	921000	130	100	no binding (tested: 1 µg/mL)	no binding (tested: 1 µg/mL)	no binding (tested: 1 µg/mL)	no binding (tested: 1 µg/mL)	
B2	943					no binding (tested: 1 µg/mL)				
B3	803					no binding (tested: 1 µg/mL)				
B4	1120					no binding (tested: 1 µg/mL)				
B5	433	100	1.07e+06	100	330	no binding (tested: 1 µg/mL)	no binding (tested: 1 µg/mL)	no binding (tested: 1 µg/mL)	no binding (tested: 1 µg/mL)	
B6										no binding (tested: 1 µg/mL)
